We go through three molecules from patent US20230203131A1 (OSAKA UNIVERSITY, published 2023).

Assay [1] addresses Perlecan-fused Chimera-511 (Chimera-511P), not treated with thrombin (human) (UniProt P02675). Kind of assay: solid-phase integrin binding assay (ELISA): Chimera-511P coated, α6β1 integrin titrated, as in Example 1 (5). A general note: ELISA stands for enzyme-linked immunosorbent assay.
Assay [2] deals with T1, α6β1 integrin (UniProt P23229 24-1011; P05556 21-728).
T1 construct: Soluble protein added to plates and detected with a biotin-labeled Velcro antibody
T1 sequence (P23229 other isoform, or with tags, fused parts or gaps, chain 1 of 2): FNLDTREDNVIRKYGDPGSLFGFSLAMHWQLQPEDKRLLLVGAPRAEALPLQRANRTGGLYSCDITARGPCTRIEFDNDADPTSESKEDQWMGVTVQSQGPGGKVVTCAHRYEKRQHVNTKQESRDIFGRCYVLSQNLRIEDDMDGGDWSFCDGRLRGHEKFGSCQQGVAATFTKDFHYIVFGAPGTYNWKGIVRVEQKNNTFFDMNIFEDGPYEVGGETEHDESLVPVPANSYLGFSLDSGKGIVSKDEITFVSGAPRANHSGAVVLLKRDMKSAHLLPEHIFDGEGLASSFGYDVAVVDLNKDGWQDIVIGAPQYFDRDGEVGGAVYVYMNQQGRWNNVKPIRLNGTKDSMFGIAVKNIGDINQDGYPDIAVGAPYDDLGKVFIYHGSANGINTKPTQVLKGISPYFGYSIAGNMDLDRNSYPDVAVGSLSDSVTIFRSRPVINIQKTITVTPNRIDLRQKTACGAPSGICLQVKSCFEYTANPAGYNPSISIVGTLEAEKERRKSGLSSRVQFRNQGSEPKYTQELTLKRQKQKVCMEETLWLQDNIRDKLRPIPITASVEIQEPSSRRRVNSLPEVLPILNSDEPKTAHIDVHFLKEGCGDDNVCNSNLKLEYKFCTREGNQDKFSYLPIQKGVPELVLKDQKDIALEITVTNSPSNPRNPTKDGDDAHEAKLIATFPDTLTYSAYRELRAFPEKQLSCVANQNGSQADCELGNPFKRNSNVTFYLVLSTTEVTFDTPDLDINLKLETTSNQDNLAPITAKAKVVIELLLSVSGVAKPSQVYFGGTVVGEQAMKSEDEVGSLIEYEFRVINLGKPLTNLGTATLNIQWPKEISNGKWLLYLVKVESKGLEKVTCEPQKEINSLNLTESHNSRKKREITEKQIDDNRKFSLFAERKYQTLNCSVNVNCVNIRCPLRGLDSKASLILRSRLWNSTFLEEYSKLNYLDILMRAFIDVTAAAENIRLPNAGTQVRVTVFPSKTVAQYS
T1 sequence (P05556 21-728, chain 2 of 2): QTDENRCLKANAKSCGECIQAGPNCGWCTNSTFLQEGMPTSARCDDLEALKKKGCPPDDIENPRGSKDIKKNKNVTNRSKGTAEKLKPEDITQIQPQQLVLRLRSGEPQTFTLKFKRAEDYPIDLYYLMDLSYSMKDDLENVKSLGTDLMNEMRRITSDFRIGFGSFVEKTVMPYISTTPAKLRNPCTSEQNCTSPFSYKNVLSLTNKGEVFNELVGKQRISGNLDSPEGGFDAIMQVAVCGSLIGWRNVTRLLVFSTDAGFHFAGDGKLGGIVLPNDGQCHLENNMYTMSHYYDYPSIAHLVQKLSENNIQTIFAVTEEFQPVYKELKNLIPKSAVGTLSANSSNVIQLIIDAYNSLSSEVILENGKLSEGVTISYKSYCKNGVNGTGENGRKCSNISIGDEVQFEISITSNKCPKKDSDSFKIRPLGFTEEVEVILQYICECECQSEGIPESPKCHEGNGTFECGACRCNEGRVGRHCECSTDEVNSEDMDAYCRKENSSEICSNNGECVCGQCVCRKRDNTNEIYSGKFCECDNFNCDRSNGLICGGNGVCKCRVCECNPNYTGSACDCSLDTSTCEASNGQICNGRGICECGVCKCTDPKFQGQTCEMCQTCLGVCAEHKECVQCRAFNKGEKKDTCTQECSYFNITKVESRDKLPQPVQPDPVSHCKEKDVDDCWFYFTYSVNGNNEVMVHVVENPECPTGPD
The assay is described as follows: solid-phase integrin binding assay (ELISA): LM511E8 coated at 10 nM, α6β1 integrin titrated 0.001-100 nM in 1 mM MnCl2. The procedure:
(§1) The plates were incubated with gentle agitation at 4° C. overnight for coating.
(§2) Integrin binding assay was performed according to the method of Ido et al. (Hiroyuki Ido et al. J. Biol. Chem., 282, 11144-11154, 2007). The specific procedure was as follows. […] Next, TBST supplemented with 1% BSA was added at 200 μL/well, and the plates were incubated with agitation on a shaker (B. Braun Biotech International CERTOMAT MT) at room temperature for 1 hour for blocking. The plates were washed once with 200 μL/well of 0.1% BSA/TBST. α6β1 integrin was diluted to final concentrations of 0.001 nM, 0.003 nM, 0.01 nM, 0.03 nM, 0.1 nM, 0.3 nM, 1 nM, 3 nM, 10 nM, 30 nM, and 100 nM in 0.1% BSA/TBST containing 1 mM MnCl₂ or 10 mM EDTA. The diluted α6β1 integrin solutions were added to the plates at 50 μL/well and allowed to react with agitation using the shaker at room temperature for 3 hours.
(§3) After the reaction, the plates were washed three times with 200 μL/well of 1 mM MnCl₂/0.1% BSA/TBST or 10 mM EDTA/0.1% BSA/TBST. A 1.5 μg/mL solution of a biotin-labeled Velcro antibody (prepared as described in Takagi, J., Erickson, H. P. and Springer, T. A. (2001) Nat. Struct. Biol. 8, 412-416) in 1 mM MnCl₂/0.1% BSA/TBST was added at 50 μL/well and allowed to react with agitation using the shaker at room temperature for 30 minutes. […]

In assay [3] the target is T1, α6β1 integrin. Kind of assay: solid-phase integrin binding assay (ELISA): Chimera-511 coated at 10 nM, α6β1 integrin titrated 0.001-100 nM in 1 mM MnCl2. The procedure:
as §1, §2, §3

Consider “α6β1 integrin (from UniProt P23229 24-1011; P05556 21-728) (receptor)”, for which, in assay [1], the Kd was 900 pM.

B1: Human laminin 511E8 fragment (human laminin α5β1γ1E8) (other)
chain 1: HHHHHHAAEDAAGQALQQADHTWATVVRQGLVDRAQQLLANSTALEEAMLQEQQRLGLVWAALQGARTQLRDVRAKKDQLEAHIQAAQAMLAMDTDETSKKIAHAKAVAAEAQDTATRVQSQLQAMQENVERWQGQYEGLRGQDLGQAVLDAGHSVSTLEKTLPQLLAKLSILENRGVHNASLALSASIGRVRELIAQARGAASKVKVPMKFNGRSGVQLRTPRDLADLAAYTALKFYLQGPEPEPGQGTEDRFVMYMGSRQATGDYMGVSLRDKKVHWVYQLGEAGPAVLSIDEDIGEQFAAVSLDRTLQFGHMSVTVERQMIQETKGDTVAPGAEGLLNLRPDDFVFYVGGYPSTFTPPPLLRFPGYRGCIEMDTLNEEVVSLYNFERTFQLDTAVDRPCARSKSTGDPWLTDGSYLDGTGFARISFDSQISTTKRFEQELRLVSYSGVLFFLKQQSQFLCLAVQEGSLVLLYDFGAGLKKAVPLQPPPPLTSASKAIQVFLLGGSRKRVLVRVERATVYSVEQDNDLELADAYYLGGVPPDQLPPSLRRLFPTGGSVRGCVKGIKALGKYVDLKRLNTTGVSAGCTADLLVGRAMTFHGHGFLRLALSNVAPLTGNVYSGFGFHSAQDSALLYYRASPDGLCQVSLQQGRVSLQLLRTEVKTQAGFADGAPHYVAFYSNATGVWLYVDDQLQQMKPHRGPPPELQPQPEGPPRLLLGGLPESGTIYNFSGCISNVFVQRLLGPQRVFDLQQNLGSVNVSTGCAPALQAQTPGLGPRGLQATARKASRRSRQPARHPA
chain 2: LQHSAADIARAEMLLEEAKRASKSATDVKVTADMVKEALEEAEKAQVAAEKAIKQADEDIQGTQNLLTSIESETAASEETLFNASQRISELERNVEELKRKAAQNSGEAEYIEKVVYTVKQSAEDVKKTLDGELDEKYKKVENLIAKKTEESADARRKAEMLQNEAKTLLAQANSKLQLLKDLERKYEDNQRYLEDKAQELARLEGEVRSLLKDISQKVAVYSTCL
chain 3: EANDILNNLKDFDRRVNDNKTAAEEALRKIPAINQTITEANEKTREAQQALGSAAADATEAKNKAHEAERIASAVQKNATSTKAEAERTFAEVTDLDNEVNNMLKQLQEAEKELKRKQDDADQDMMMAGMASQAAQEAEINARKAKNSVTSLLSIINDLLEQLGQLDTVDLNKLNEIEGTLNKAKDEMKVSDLDRKVSDLENEAKKQEAAIMDYNRDIEEIMKDIRNLEDIRKTLPSGCFNTPSIEKP
notes: range 2534-3327;range 1561-1786;range 1362-1609; Heterotrimer of α5E8, β1E8 and γ1E8, expressed in 293-F cells; also called LM511E8; LM511 E8; not shown: HA tag, N-terminal; FLAG tag, N-terminal
In turn, B1 yielded a Kd with α6β1 integrin [2] of 590 pM.

B2: Chimera-511 (chimeric protein having human fibrinogen fused to an integrin-binding domain of human laminin 511), not treated with thrombin (other)
chain 1: QGVNDNEEGFFSARGHRPLDKKREEAPSLRPAPPPISGGGYRARPAKAAATQKKVERKAPDAGGCLHADPDLGVLCPTGCQLQEALLQQERPIRNSVDELNNNVEAVSQTSSSSFQYMYLLKDLWQKRQKQVKDNENVVNEYSSELEKHQLYIDETVNSNIPTNIGRVRELIAQARGAASKVKVPMKFNGRSGVQLRTPRDLADLAAYTALKFYLQGPEPEPGQGTEDRFVMYMGSRQATGDYMGVSLRDKKVHWVYQLGEAGPAVLSIDEDIGEQFAAVSLDRTLQFGHMSVTVERQMIQETKGDTVAPGAEGLLNLRPDDFVFYVGGYPSTFTPPPLLRFPGYRGCIEMDTLNEEVVSLYNFERTFQLDTAVDRPCARSKSTGDPWLTDGSYLDGTGFARISFDSQISTTKRFEQELRLVSYSGVLFFLKQQSQFLCLAVQEGSLVLLYDFGAGLKKAVPLQPPPPLTSASKAIQVFLLGGSRKRVLVRVERATVYSVEQDNDLELADAYYLGGVPPDQLPPSLRRLFPTGGSVRGCVKGIKALGKYVDLKRLNTTGVSAGCTADLLVGRAMTFHGHGFLRLALSNVAPLTGNVYSGFGFHSAQDSALLYYRASPDGLCQVSLQQGRVSLQLLRTEVKTQAGFADGAPHYVAFYSNATGVWLYVDDQLQQMKPHRGPPPELQPQPEGPPRLLLGGLPESGTIYNFSGCISNVFVQRLLGPQRVFDLQQNLGSVNVSTGCAPALQAQTPGLGPRGLQAHHHHHHHHHH
chain 2: ADSGEGDFLAEGGGVRGPRVVERHQSACKDSDWPFCSDEDWNYKCPSGCRMKGLIDEVNQDFTNRINKLKNSLFEYQKNNKDSHSLTTNIMEILRGDFSSANNRDNTYNRVSEDLRSRIEVLKRKVIEKVQHLARLEGEVRSLLKDISQKVAVYSTCL
chain 3: YVATRDNCCILDERFGSYCPTTCGIADFLSTYQTKVDKDLQSLEDILHQVENKTSEVKQLIKAIQLTYNPDESSKPNMIDAATLKSRKMLEEIMKYEASILTHDSSIEEIMKDIRNLEDIRKTLPSGCFNTPSIEKP
notes: range 31-194;range 2716-3310;range 20-151;range 1761-1786;range 27-132;range 1579-1609; Chains in order: Chimera-α5, Chimera-β1, Chimera-γ1; also called Combination-3
Take B2: in the assay with α6β1 integrin [3], the Kd was found to be 580 pM. This counts as sub-nanomolar.

By Kd is commonly meant the concentration at which binding is half-saturated. Read a low Kd as higher affinity.
